The values that follow come from patent publication CN116143933A (BEIJING ZHIREN MEIBO BIOTECHNOLOGY CO LTD, dated 2023).

The labels stand for the following.
B1: S5B8h2 (antibody, IgG1, V domains shown)
VH: QVQLVQSGAEVKKPGASVKVSCKASGYAFTNSWMHWVRQAPGQGLEWMGEIHPQSGRTNYNEKFKGRVTMTRDTSTSTVYMELSSLRSEDTAVYYCARDLLQFGNQYYYAMDYWGQGTLVTVSS
VL: DIVMTQTPLSLPVTPGEPASISCRSSQSLVHSNGNTYLHWYLQKPGQSPQLLIYKVSNRFSGVPDRFSGSGSGTDFTLKISRVEAEDVGVYYCSQSTHVPLTFGQGTKLEIK
notes: Made as a whole antibody of the IgG1 subtype; only variable domains are tied to it; also called 单克隆抗体S5B8h2
B2: S5A10h1Fab+S5B8h2ScFv (bispecific antibody, human IgG1, kappa)
chain: DIVMTQTPLSLPVTPGEPASISCRSSQSLVHSNGNTYLHWYLQKPGQSPQLLIYKVSNRFSGVPDRFSGSGSGTDFTLKISRVEAEDVGVYYCSQSTHVPLTFGQGTKLEIKGGGGSGGGGSGGGGSQVQLVQSGAEVKKPGASVKVSCKASGYAFTNSWMHWVRQAPGQGLEWMGEIHPQSGRTNYNEKFKGRVTMTRDTSTSTVYMELSSLRSEDTAVYYCARDLLQFGNQYYYAMDYWGQGTLVTVSSEPKSSDKTHTCPPCPAPELLGGPSVFLFPPKPKDTLMISRTPEVTCVVVDVSQEDPEVQFNWYVDGVEVHNAKTKPREEQYNSTYRVVSVLTVLHQDWLNGKEYKCKVSNKALPAPIEKTISKAKGQPREPQVCTLPPSQEEMTKNQVSLSCAVKGFYPSDIAVEWESNGQPENNYKTTPPVLDSDGSFFLVSKLTVDKSRWQEGNVFSCSVMHEALHNHYTQKSLSLSPGK
heavy: not shown
light: DIQMTQSPSSLSASVGDRVTITCRASENIYSYLAWYQQKPGKAPKLLIYNAKTLAEGVPSRFSGSGSGTDFTLTISSLQPEDFATYYCQHHYGTPYTFGQGTKLEIKRTVAAPSVFIFPPSDEQLKSGTASVVCLLNNFYPREAKVQWKVDNALQSGNSQESVTEQDSKDSTYSLSSTLTLSKADYEKHKVYACEVTHQGLSSPVTKSFNRGEC
notes: Fab-FcK/scFv-FcH knob-into-hole format, three chains
B3: S5A10h1cross+S5B8h2 (bispecific antibody, human IgG1, kappa)
heavy 1: QVQLVQSGAEVKKPGASVKVSCKASGYAFTNSWMHWVRQAPGQGLEWMGEIHPQSGRTNYNEKFKGRVTMTRDTSTSTVYMELSSLRSEDTAVYYCARDLLQFGNQYYYAMDYWGQGTLVTVSSASTKGPSVFPLAPSSKSTSEGTAALGCLVKDYFPEPVTVSWNSGALTSGVHTFPAVLQSSGLYSLSSVVTVPSSSLGTQTYICNVDHKPSNTKVDKTVEPKSCDKTHTCPPCPAPELLGGPSVFLFPPKPKDTLMISRTPEVTCVVVDVSQEDPEVQFNWYVDGVEVHNAKTKPREEQYNSTYRVVSVLTVLHQDWLNGKEYKCKVSNKALPAPIEKTISKAKGQPREPQVCTLPPSQEEMTKNQVSLSCAVKGFYPSDIAVEWESNGQPENNYKTTPPVLDSDGSFFLVSKLTVDKSRWQEGNVFSCSVMHEALHNHYTQKSLSLSPGK
light 1: DIVMTQTPLSLPVTPGEPASISCRSSQSLVHSNGNTYLHWYLQKPGQSPQLLIYKVSNRFSGVPDRFSGSGSGTDFTLKISRVEAEDVGVYYCSQSTHVPLTFGQGTKLEIKRTVAAPSVFIFPPSDEQLKSGTASVVCLLNNFYPREAKVQWKVDNALQSGNSQESVTEQDSKDSTYSLSSTLTLSKADYEKHKVYACEVTHQGLSSPVTKSFNRGEC
heavy 2: not shown
light 2: DIQMTQSPSSLSASVGDRVTITCRASENIYSYLAWYQQKPGKAPKLLIYNAKTLAEGVPSRFSGSGSGTDFTLTISSLQPEDFATYYCQHHYGTPYTFGQGTKLEIKSSASTKGPSVFPLAPSSKSTSGGTAALGCLVKDYFPEPVTVSWNSGALTSGVHTFPAVLQSSGLYSLSSVVTVPSSSLGTQTYICNVNHKPSNTKVDKRVEPKSC
notes: Knob-into-hole plus CrossMab format, four chains
B4: S5A10h1 (antibody, V domains shown)
VH: QVQLVQSGAEVKKPGSSVKVSCKASDYPFISYTIHWVRQAPGQGLEWMGYINPSNGYTNYNQKFKDRVTITADKSTSTAYMELSSLRSEDTAVYYCARKYGNFYAMDYWGQGTLVTVSS
VL: DIQMTQSPSSLSASVGDRVTITCRASENIYSYLAWYQQKPGKAPKLLIYNAKTLAEGVPSRFSGSGSGTDFTLTISSLQPEDFATYYCQHHYGTPYTFGQGTKLEIK
notes: Made as a whole antibody of the IgG1 subtype; only variable domains are tied to it; also called 单克隆抗体S5A10h1

In one test the target is T1, 食蟹猴CD38胞外区-His (mfCD38-His) (cynomolgus monkey (Macaca fascicularis), UniProt Q5VAN0 44-301).
T1 construct: Recombinant, expressed in HEK293 cells; not shown: His tag at the C-terminus
In words: ELISA, mfCD38-His coated at 1.5 μg/ml, HRP mouse anti-human IgG. Background: An ELISA detects its analyte on a solid surface through an enzyme-linked reagent.
With B1, the binding result was “binds”.

Take B2: the binding result was “binds”. On the same count and under the same terms, under B3 stands “binds”.

Another test addresses T2, 人CD38胞外区-His (hCD38-His) (human (homo sapiens), UniProt P28907 43-300).
T2 construct: Recombinant, expressed in HEK293 cells; also called 人CD38-His; not shown: His tag at the C-terminus
In words: SPR (Biacore X100), antibody captured by anti-human Fc, human CD38-His as analyte, 25°C. Background: In SPR one partner is held on a chip, and binding of the other changes the refractive index at the surface.
The Kd is the concentration at which binding is half-saturated. On to B4, for which binding was put at a Kd of 1.33 nM. On the same count and under the same terms, in the case of B1 it was 0.0213 nM. The same measure, in the same setting: under B2 stands 0.151 nM; under B3, 0.0216 nM.
